# Measured values: the DeepSol protein solubility set
# Assay: soluble on expression in E. coli; label from the status in PepcDB or PDB records
row,Sequence,soluble on expression in E. coli
1,GAVFEFDNLAPMLATHGTVAGLKASQWAFEGKWDGYRLLVEADHGAVRLRSRSGRDVTAEYPQLRALAEDLADHHVVLDGEAVVLDSSGVPSFSQMQNRGRDTRVEFWAFDLLYLDGRALLGTRYQDRRKLLETLANATSLTVPELLPGDGAQAFACSRKHGWEGVIAKRRDSRYQPGRRCASWVKDKHWNTQEVVIGGWRAGEGGRSSGVGSLLMGIPGPGGLQFAGRVGTGLSERELANLKEMLAPLHTDESPFDVPLPARDAKGITYVKPALVAEVRYSEWTPEGRLRQSSWRGLRPDKKPSEVVRE,soluble
2,GDALTSPQQTKLYLSSVLRDRQREAFYILFLDNQHRVIRDEILFEGTIDAASVYPREVVKRALHHNAAAVILAHNHPSGVAEPSQADRRITDRLRDALGLVEIRVLDHFVVGDGEVVSFAERGWI,soluble
3,GDSLTAQEALATLALSGDDDGPRQTRSYQVMNGIAVLPVSGTLVSRTRALQPYSGMTGYNGIIARLQQAASDPMVDGILLDMDTPGGMVAGAFDCADIIARVRDIKPVWALANDMNCSAGQLLASAASRRLVTQTARTGSIGVMMAHSNYGAALEKQGVEITLIYSGSHKVDGNPYSHLPDDVRETLQSRMDATRQMFAQKVSAYTGLSVQAVLDTEAAVYSGQEAIDAGLAD,not soluble
4,GDSSSSGNSFVGLRVVAKWSSNGYFYSGKITRDVGAGKYKLLFDDGYECDVLGKDILLCDPIPLDTEVTALSEDEYFSAGVVKGHRKESGELYYSIEKEGQRKWYKRMAVILSLEQGNRLREQYGLGPYEAVTPLTKAADISLDNLVEGKRKRRSN,soluble
5,GDTRPRFLQQDKYECHFFNGTERVRFLHRDIYNQEEDLRFDSDVGEYRAVTELGRPDAEYWNSQKDFLEDRRAAVDTYCRHNYGVGESFTVQRRVEPKVTVYPARTQTLQHHNLLVCSVNGFYPGSIEVRWFRNSQEEKAGVVSTGLIQNGDWTFQTLVMLETVPRSGEVYTCQVEHPSVTSPLTVEWRAQS,soluble
6,GEAQERQTDDGIAAFCRHLGELCDLLNAPYDDVNALAHLARAGELQGTNVNLLLHNAFYHWLGERVQLSVAESRDVAPETIAAHAREAALAQIQSGEYVSQFVTAVAAHATQNVDGVQGPVAPTKQSLFDLPGHFELLGPDEVDGLLKDLASSDCPVGALEKLVADPHLLEDLCFGPTWPQLCDSLGRLVCLLPPSGGTQAAVTGAGHHQHGHTRAAAAVGGGAGRAAASVPEMPKQQQLLLQALNEVVSAVAASSPPHAAELLDGLAPYLTALALRLSLPLPGAGTGHATPVAPDQLQTRVQAGMAGPGAGAGDGGPGGVAVVGTGAVGLLVAVTARDA,not soluble
7,GEERKSSSWGRVDAMELPNYSRQLLQQLYTLCKEQQFCDCTISIGTIYFRAHKLVLAAASLLFKTLLDNTDTISIDASVVSPEEFALLLEMMYTGKLPVGKHNFSKIISLADSLQMFDVAVSCKNLLTSLVNCSVQGQVVRDVSAPSSETFRKEPEKPQVEILSSEGAGEPHSSPELAATPGGPVKAETEEAAHSVSQEMSVNSPTAQESQRNAETPAETPTTAEACSPSPPVQTFSEAKKTSTEPGCERKHYQLNFLLENEGVFSDALMVTQDVLKKLEMCSEIKGPQKEMIVKCFEGEGGHSAFQRILGKVREESLDVQTVVSLLRLYQYSNPAVKTALLDRKPEDVDTVQPKGSTEEGKTLSVLLLEHKEDLIQCVTQLRPIMESLETAKEEFLTGTEKRVILNCCEGRTPKETIENLLHRMTEEKTLTAEGLVKLLQAVKTTFPNLGLLLEKLQKSATLPSTTVQPSPDDYGTELLRRYHENLSEIFTDNQILLKMISHMTSLAPGEREVMEKLVKRDSGSGGFNSLISAVLEKQTLSATAIWQLLLVVQETKTCPLDLLMEEIRREPGADAFFRAVTTPEHATLETILRHNQLILEAIQQKIECKLFTSEEEHLAETVKEILSIPSETASPEASLRAVLSRAMEKSVPAIEICHLLCSVHKSFPGLQPVMQELAYIGVLTKEDGEKETWKVSNKFHLEANNKEDEKAAKEDSQPGEQNDQGETGSLPGQQEKEASASPDPAKKSFICKACDKSFHFYCRLKVHMKRCRVAKSKQVQCKECSETKDSKKELDKHQLEAHGAGGEPDAPKKKKKRLPVTCDLCGREFAHASGMQYHKLTEHFDEKPFSCEECGAKFAANSTLKNHLRLHTGDRPFMCKHCLMTFTQASALAYHTKKKHSEGKMYACQYCDAVFAQSIELSRHVRTHTGDKPYVCRDCGKGFRQANGLSIHLHTFHNIEDPYDCKKCRMSFPTLQDHRKHIHEVHSKEYHPCPTCGKIFSAPSMLERHMVTHVGGKPFSCGICNKAYQQLSGLWYHNRTHHPDVFAAQNHRSSKFSSLQCSSCDKTFPNTIEHKKHIKAEHADMKFHECDQCKELFPTPALLQVHVKCQHSGSQPFRCLYCAATFRFPGALQHHVTTEHFKQSETTFPCELCGELFTSQAQLDSHLESEHPKVMSTETQAAASQMAQVIQTPEPVAPTEQVITLEETQLAGSQVFVTLPDSQASQASSELVAVTVEDLLDGTVTLICGEAK,soluble
8,GEHTTCGCGEHCGCNPCACGREGTPSGRANRRANCSCGAACNCASCGSATAPG,soluble
9,GFKCGIVGLPNVGKSTLFNALTKAGIEAANFPFCTIEPNTGVVPMPDPRLDQLAEIVKPQRTLPTTMEFVDIAGLVKGASKGEGLGNQFLTNIRETEAIGHVVRCFENDNIIHVSGKVNPADDIEVINTELALADLDTCERAIHRVQKKAKGGDKDAKAELAVLEKCLPQLENAGMLRALDLSAEEKAAIRYLSFLTLKPTMYIANVNEDGFENNPYLDQVREIAAKEGSVVVPVCAAVEADIAELDDEERDEFMQELGLEEPGLNRVIRAGYKLLNLQTYFTAGVKEVRAWTIPVGATAPQAAGKIHTDFEKGFIRAQTISFEDFITYKGEQGAKEAGKMRAEGKDYIVKDGDVMNFLFNV,not soluble
10,GGALGGSIAFETVDAQDLLEGNQKLGMMLRSGYASASDGYLGGTSVYGLLSDHLGILVDVSGQNEDDYRGGSGEDALYTATKDRNYFAKLSLLDLEGHTLKVGATHNKSSGHYVSGSTGSDMGAPSASQKADFQVLKRDTYTLDHRYNPENPYVDIQTKIYRNERHLENRTSLLDVTSQTTGGSLKNVMTLDSGIFQHRFTLGGDYEQEKGIVENSLYENEAKTTGLFLQGLTRVEALKLHYGLRWDDYKSDFGPKTLSGDELSPNFGAEYELLSGLALFSNYSESVRAGGIIPLQWMAGITQSANFNNGEAFKPEISKQKEGGIKYSTRGVFADNDRMKLSATLFKTTIENLIDYTRSGGPSGKITKIFNQEEDLISKGYELKASWEKEAWATSLGFIHVEMEEGGEPVVVSRRKAASMGDRFVWDVSYQMTPELLLGYTLHAVDKLDDVPALYRRAGYVTHDLELQWRPASIKGLTWSLAVHNLLDKSYYEQSSFESGDSIVEEAGRDVRLAVKYKF,not soluble
11,GGGGGGMVNLQRARTPIHRVGFARPPLHLAIPHPATTTPCAMSAESLVLALVLLALCGAVMLRWISQRHAHDSAVGDKALTHKGRLRLSQNASGSAAGRCGSDDGNDSDQGGVDDDNGGAVGRRRRGAGGVLRRRRPQERGGNARRGGSDGDENSYDGDDAGGIPETDANGVKLTRLQRKKLAKEREREERRQAQEAALEAQRQRMDVNELRDAEAALREEELKAAEEAALQQLRRDKKKAEDEEYAKWVSHIGVEERGELGDEERERQTRMQSFLLDRAAQVQARARRSAAGAKSSPSEEECIHVLILQTAARDLKVSVEELVSTIEQLSQVDKVHGVFDDRGKYVFIAPEQFPLLAQFIRLRGRVSVQEFTRECNRVVMQS,soluble
12,GGNANMFMNLSREAQSETRRHHYLSSSQKEAKDFAMFADTSNPTLVRTIGVRNNLSLITDPRTGGTALMTDQSIPRKFVLGSKSSAPGENAKVFRDEMRAAGHNVSTKQAGELLREVQSDSDDDNFPDPDDFIMSRFTG,not soluble
13,GGNSKSRNDRTETVDKEVIKAPEFDADSAYQYIQVQADFGPRVPNTQAHKECGEYLAGQLEKFGAKVYNQYADLIAYDGTILKSRNIIGAYKPESKKRILLCAHWDSRPYADNDPDPKNHHTPILGVNDGASGVGVLLEIARQIQKEQPALGIDIVFFDSEDYGIPEFYDGKYKQDTWCLGSQYWARTPHVQNYNARYGILLDMVGGKDATFYYEGYSARTARSEMKKIWKKAHELGYGKYFVKEDGGETVDDHIYVNKLARIPCVDIINYDAGNPQSSFGSFWHTVNDTMENIDRNTLKAVGQTVMDVIYNEK,soluble
14,GGTAYWKNPDQFTAFNTGLHALLREKSYNFFLLGEPRADIYGDNPIGGEASQGMERLPFNTINKENVGISNYGDMYKIINQINQMIAKTTETTILTEATQNYYLGEAYGMRAYLYFHLLRSWGDVVLYLDYTEGQNLDLSNITKGVSPATEVMEQIKKDIQASENAFGSDYSFKLGRHFWSAAATQMLKGEAYLWSGRQMNGGNSDYTIAKNAFENVKKADVGLVTSSFKDIFSFENKKNKEMIFTIHNGKDEYEMWGGYYRMRLIPAQDKMVKIYCDENGNSFVGTPDAQLNGLTQLQVRREFYFKGFRNNDTRWTTSLKAVYKKDAQGVVSYFGPITYKFQGTMLEGGSTRSFLDDFPIYRYADCLLQLAMAKVLLGEDPTEEINAVRERAYGSKYFNEHKAEIAYPNDNDPEFYTDNKWMKPDNAGALEAILKERLREFMFEGKRWYDIRLLGWDYVHQYSSAEQSRLLWPIDAGTLTNNSALKQTPGYE,soluble
15,GHMGKPDISAKDLRNIMYDHLPGFGTAFHQLVQVICKLGKDSNSLDIIHAEFQASLAEGDSPQCALIQITKRVPIFQDAAPPVIHIRSRGDIPRACQKSLRPVPPSPKIDRGWVCVFQLQDGKTLGLAI,soluble
16,GHMPGRAPGSTLARVGSIPAGDDVLDPDEPTYDLPRVAELLGVPVSKVAQQLREGHLVAVRRAGGVVIPQVFFTNSGQVVKSLPGLLTILHDGGYRDTEIMRWLFTPDPSLTITRDGSRDAVSNARPVDALHAHQAREVVRRAQAMAY,soluble
17,GHMSRRSFKNRVLAFFKGYPSFYYPATLVAPVHSAVTSSIMYKVQFDDATMSTVNSNQIKRFFLKKGDVVQSTRLGKIKHTVVKTFRSTNEQLSLIAVDALNNDMVILAHGEIEVTVPISTIYVAPVNIRRFQGRDLSFSTLKDMKFEETSFL,soluble
18,GIDTVGGKMTVCQLYDKKNSQRKNIKRATEKGRQYLMNALKNDPLGMRAIDTVKQSDAKEWAIRMSEKGYAYKTIDNYKRSLKASFYMAIQDDCIRKNPFDFKLSDVLEDDTEQKVILTPEQEERLLAFMEKDKIYSKYYDEVVLLLETGLRISEFCGLTMHIDMQNRILNIDHQLLKDSEIGYYIETPKTKNGKRELPLTERAYQAIQRILKSRGKAQPLIVGGYSNFLFLNREGLPKVAGNYEGMVRGLIKKYNKYHTDKLPNITPHSFRHTYCTNMANRGMNPNTLQYLMGHANITMTLGYYAHGTFQSAKAELERLAC,not soluble
19,GISPNVLNNMKSYMKHSNIRNIIINIMAHELSVINNHIKYINELFYKLDTNHNGSLSHREIYTVLASVGIKKWDINRILQALDINDRGNITYTEFMAGCYRWKNIESTFLKAAFNKIDKDEDGYISKSDIVSLVHDKVLDNNDIDNFFLSVHSIKKGIPREHIINKISFQEFKDYMLSTF,soluble
20,GKKQEPYEQVTIDVEEQHQGSVMEALGIRKGEVRDMLPDGKGRVRLEYIIPSRGLIGFRGDFMTMTSGTGLLYSSFSHYDEIKGGEIGQRKNGVLISNATGKALGYALFGLQERGKLMIDANIEVYEGQI,not soluble
21,GKSPEAECNKITEEPKCSEEKICSWHKEVKAGEKNCQFNSTKASKS,soluble
22,GLEVDNNSLLRNIYSTIVYEYSDIVIDFKTSHNLVTKKLDVRDARDFFINSEMDEYAANDFKTGDKIAVFSVPFDWNYLSKGKVTAYTYGGITPYQKTSIPKNIPVNLWINGKQISVPYNEISTNKTTVTAQEIDLKVRKFLIAQHQLYSSGSSYKSGRLVFHTNDNSDKYSFDLFYVGYRDKESIFKVYKDNKSFNIDKIGHLDIEIDS,soluble
